T1: APBA1_2, Q02410
T1 sequence (Q02410 742-832, limits assumed, looked up): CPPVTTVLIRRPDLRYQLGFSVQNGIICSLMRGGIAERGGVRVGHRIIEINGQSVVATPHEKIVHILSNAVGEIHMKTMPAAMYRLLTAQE

T2: APBA2_1, Q99767
T2 sequence (Q99767 563-664, limits assumed, looked up): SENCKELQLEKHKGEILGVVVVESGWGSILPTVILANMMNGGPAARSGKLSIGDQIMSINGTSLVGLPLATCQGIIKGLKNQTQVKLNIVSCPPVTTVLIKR

T3: APBA3_1, O96018
T3 sequence (O96018 389-490, limits assumed, looked up): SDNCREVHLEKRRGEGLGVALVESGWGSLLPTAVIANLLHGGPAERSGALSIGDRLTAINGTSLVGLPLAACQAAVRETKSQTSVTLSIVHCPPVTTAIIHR

T4: DFNB31_3, Q9P202
T4 sequence (Q9P202 811-907, limits assumed, looked up): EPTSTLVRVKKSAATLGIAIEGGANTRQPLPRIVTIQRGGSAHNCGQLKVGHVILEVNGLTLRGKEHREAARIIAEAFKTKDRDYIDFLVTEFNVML

T5: DVL3, Q92997
T5 sequence (Q92997 244-331, limits assumed, looked up): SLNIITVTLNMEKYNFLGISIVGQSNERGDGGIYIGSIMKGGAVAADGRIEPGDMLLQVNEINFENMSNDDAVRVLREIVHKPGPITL

T6: GRIP1_3, Q9Y3R0
T6 sequence (Q9Y3R0 247-346, limits assumed, looked up): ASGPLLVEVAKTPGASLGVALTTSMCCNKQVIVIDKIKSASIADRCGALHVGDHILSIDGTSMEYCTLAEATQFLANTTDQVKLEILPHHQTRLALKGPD

T7: HTRA3, P83110
T7 sequence (P83110 354-453, limits assumed, looked up): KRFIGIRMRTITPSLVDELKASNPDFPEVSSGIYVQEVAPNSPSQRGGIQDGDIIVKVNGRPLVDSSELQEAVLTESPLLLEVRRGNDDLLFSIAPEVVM

T8: LNX2_3, Q8N448
T8 sequence (Q8N448 463-564, limits assumed, looked up): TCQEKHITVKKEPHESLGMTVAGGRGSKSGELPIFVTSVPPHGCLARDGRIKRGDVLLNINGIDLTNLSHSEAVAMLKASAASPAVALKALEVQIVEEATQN

T9: LRRC7, Q96NW7
T9 sequence (Q96NW7 1440-1537, limits assumed, looked up): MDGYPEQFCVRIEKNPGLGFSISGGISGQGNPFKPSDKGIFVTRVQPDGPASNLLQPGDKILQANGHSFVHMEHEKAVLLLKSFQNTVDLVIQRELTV

T10: NHERF3_3, Q5T2W1
T10 sequence (Q5T2W1 238-333, limits assumed, looked up): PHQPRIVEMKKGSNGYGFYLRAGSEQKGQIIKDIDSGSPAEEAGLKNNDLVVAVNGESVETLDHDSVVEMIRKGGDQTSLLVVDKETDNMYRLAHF

T11: NHERF3_4, Q5T2W1
T11 sequence (Q5T2W1 373-468, limits assumed, looked up): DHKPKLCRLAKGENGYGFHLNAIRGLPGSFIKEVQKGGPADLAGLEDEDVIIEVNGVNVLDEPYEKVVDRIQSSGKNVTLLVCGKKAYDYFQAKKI

T12: PDZD2_2, O15018
T12 sequence (O15018 329-429, limits assumed, looked up): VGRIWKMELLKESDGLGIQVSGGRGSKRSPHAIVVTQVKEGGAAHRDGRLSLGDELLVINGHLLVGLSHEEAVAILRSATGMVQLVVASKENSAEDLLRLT

T13: PDZD7_3, Q9H5P4
T13 sequence (Q9H5P4 857-944, limits assumed, looked up): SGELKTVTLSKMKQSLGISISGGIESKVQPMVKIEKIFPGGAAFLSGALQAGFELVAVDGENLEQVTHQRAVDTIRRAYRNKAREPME

T14: TJP3_3, O95049
T14 sequence (O95049 375-456, limits assumed, looked up): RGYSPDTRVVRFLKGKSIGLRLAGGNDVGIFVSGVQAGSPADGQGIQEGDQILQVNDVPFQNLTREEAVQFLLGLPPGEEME


Experiments:
Test in all cases: holdup assay
Set-up in all cases: key: below the threshold = too weak to quantify, mostly under pKd 3.1 to 4
Details in all cases: plain residues with an end cap or a label only (N-terminal biotin on a linker: ado-ado)
[1] = molecular target: T1, APBA1_2, Q02410
[2] = molecular target: T2, APBA2_1, Q99767
[3] = molecular target: T3, APBA3_1, O96018
[4] = molecular target: T4, DFNB31_3, Q9P202
[5] = molecular target: DLG2_2, Q15700
[6] = molecular target: T5, DVL3, Q92997
[7] = molecular target: FRMPD2_3, Q68DX3
[8] = molecular target: GIPC2, Q8TF65
[9] = molecular target: T6, GRIP1_3, Q9Y3R0
[10] = molecular target: GRIP2_7, Q9C0E4
[11] = molecular target: T7, HTRA3, P83110
[12] = molecular target: IL16_3, Q14005
[13] = molecular target: Inadl_5, Q8NI35
[14] = molecular target: Inadl_9, Q8NI35
[15] = molecular target: LNX1_1, Q8TBB1
[16] = molecular target: T8, LNX2_3, Q8N448
[17] = molecular target: T9, LRRC7, Q96NW7
[18] = molecular target: MAST1, Q9Y2H9
[19] = molecular target: T10, NHERF3_3, Q5T2W1
[20] = molecular target: T11, NHERF3_4, Q5T2W1
[21] = molecular target: T12, PDZD2_2, O15018
[22] = molecular target: T13, PDZD7_3, Q9H5P4
[23] = molecular target: TJP1_3, Q07157
[24] = molecular target: T14, TJP3_3, O95049

Chain of FRMPD2_3, Q68DX3 (Q68DX3 1073-1166): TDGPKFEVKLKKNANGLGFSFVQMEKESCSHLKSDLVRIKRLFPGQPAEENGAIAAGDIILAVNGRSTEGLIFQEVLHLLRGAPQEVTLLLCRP
Chain of DLG2_2, Q15700 (Q15700 189-283): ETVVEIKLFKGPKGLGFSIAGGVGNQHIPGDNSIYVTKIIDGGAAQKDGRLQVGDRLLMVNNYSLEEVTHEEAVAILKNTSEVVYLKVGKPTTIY
Chain of TJP1_3, Q07157 (Q07157 416-512): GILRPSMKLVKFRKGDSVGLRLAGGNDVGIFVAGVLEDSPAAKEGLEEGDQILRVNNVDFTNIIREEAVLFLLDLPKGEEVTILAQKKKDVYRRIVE
Chain of Inadl_5, Q8NI35 (Q8NI35 673-780): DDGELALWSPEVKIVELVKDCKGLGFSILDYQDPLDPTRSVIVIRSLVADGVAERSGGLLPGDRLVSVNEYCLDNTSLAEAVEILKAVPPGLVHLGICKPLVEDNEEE
Chain of GIPC2, Q8TF65 (Q8TF65 112-203): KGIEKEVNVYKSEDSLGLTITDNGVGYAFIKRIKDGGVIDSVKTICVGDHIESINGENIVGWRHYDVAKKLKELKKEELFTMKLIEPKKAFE
Chain of LNX1_1, Q8TBB1 (Q8TBB1 261-371): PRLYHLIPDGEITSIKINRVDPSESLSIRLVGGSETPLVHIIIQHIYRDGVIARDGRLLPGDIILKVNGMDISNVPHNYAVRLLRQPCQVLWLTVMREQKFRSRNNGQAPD
Chain of Inadl_9, Q8NI35 (Q8NI35 1530-1615): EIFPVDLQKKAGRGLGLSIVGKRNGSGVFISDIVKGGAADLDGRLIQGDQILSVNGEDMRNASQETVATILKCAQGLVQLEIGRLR
Chain of GRIP2_7, Q9C0E4 (Q9C0E4 934-1023): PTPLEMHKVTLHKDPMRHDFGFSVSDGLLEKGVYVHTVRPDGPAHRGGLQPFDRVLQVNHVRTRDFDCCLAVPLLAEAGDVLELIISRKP
Chain of MAST1, Q9Y2H9 (Q9Y2H9 962-1065): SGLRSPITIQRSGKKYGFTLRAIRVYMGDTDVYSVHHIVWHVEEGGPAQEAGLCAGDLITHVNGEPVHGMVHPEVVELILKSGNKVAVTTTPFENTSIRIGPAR
Chain of IL16_3, Q14005 (Q14005 1107-1207): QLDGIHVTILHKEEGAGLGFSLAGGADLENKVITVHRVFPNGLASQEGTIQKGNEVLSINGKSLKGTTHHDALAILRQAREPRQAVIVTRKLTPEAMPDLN

Binder | pKd [1] | pKd [2] | pKd [3] | pKd [4] | pKd [5] | pKd [6] | pKd [7] | pKd [8] | pKd [9] | pKd [10] | pKd [11] | pKd [12] | pKd [13] | pKd [14] | pKd [15] | pKd [16] | pKd [17] | pKd [18] | pKd [19] | pKd [20] | also measured
SAAKVLTSMC [GHRHR, Q02643] | below the threshold | below the threshold | below the threshold | 4.09 | below the threshold | below the threshold | below the threshold | below the threshold | below the threshold | below the threshold | 4.24 | below the threshold | below the threshold | below the threshold | 3.86 | below the threshold | below the threshold | below the threshold | below the threshold | 4 | pKd [21]: 4.75; pKd [22]: 4.7; pKd [23]: below the threshold; pKd [24]: below the threshold
QSARLWETSI [ADAM22, Q9P0K1] | below the threshold | below the threshold | below the threshold | 4.2 | 3.85 | below the threshold | below the threshold | 4.11 | below the threshold | below the threshold | below the threshold | below the threshold | below the threshold | below the threshold | 4.43 | below the threshold | below the threshold | 4.92 | below the threshold | below the threshold | pKd [21]: 4.46; pKd [22]: 5.16; pKd [23]: below the threshold; pKd [24]: below the threshold
QSPANIYYKV [EFNB1, P52799] | below the threshold | below the threshold | below the threshold | below the threshold | below the threshold | below the threshold | below the threshold | below the threshold | below the threshold | 4.34 | below the threshold | below the threshold | below the threshold | below the threshold | below the threshold | below the threshold | below the threshold | 3.93 | below the threshold | below the threshold | pKd [21]: below the threshold; pKd [22]: below the threshold; pKd [23]: below the threshold; pKd [24]: below the threshold

More lines, main results first:

pKd [1] | pKd [2] | pKd [3] | pKd [4] | pKd [5] | pKd [6] | pKd [7] | pKd [8] | pKd [9] | pKd [10] | pKd [11] | pKd [12] | pKd [13] | pKd [14] | pKd [15] | pKd [16] | pKd [17] | pKd [18] | pKd [19] | pKd [20] | Binder | also measured
3.87 | below the threshold | below the threshold | below the threshold | 4.76 | below the threshold | 3.56 | below the threshold | below the threshold | below the threshold | below the threshold | below the threshold | 3.7 | below the threshold | 4.12 | below the threshold | below the threshold | 3.9 | below the threshold | below the threshold | TACCHSETVV [TGFA, P01135] | pKd [21]: 4.32; pKd [22]: 5.04; pKd [23]: below the threshold; pKd [24]: below the threshold
below the threshold | below the threshold | below the threshold | below the threshold | below the threshold | below the threshold | below the threshold | below the threshold | below the threshold | below the threshold | below the threshold | below the threshold | below the threshold | below the threshold | 3.78 | below the threshold | below the threshold | 3.6 | below the threshold | below the threshold | TLPRKRMSSI [GPRC6A, Q5T6X5] | pKd [21]: 4.22; pKd [22]: below the threshold; pKd [23]: below the threshold; pKd [24]: below the threshold
3.86 | below the threshold | below the threshold | below the threshold | below the threshold | below the threshold | below the threshold | below the threshold | below the threshold | below the threshold | below the threshold | below the threshold | below the threshold | below the threshold | below the threshold | below the threshold | below the threshold | below the threshold | below the threshold | below the threshold | TSSMRGMDAV [RSRC2, Q7L4I2] | pKd [21]: below the threshold; pKd [22]: below the threshold; pKd [23]: below the threshold; pKd [24]: below the threshold

Source: paper PMC9482650, “Quantitative fragmentomics allow affinity mapping of interactomes” (Nature Communications, 2022)
